B1: Akt PH domain: Akt Pleckstrin Homology (PH) domain (positions 6 to 110), fluorescently labelled, expressed in Escherichia coli (protein, UniProt P31749 6-110, looked up, fragment)
chain: IVKEGWLHKRGEYIKTWRPRYFLLKNDGTFIGYKERPQDVDQREAPLNNFSVAQCQLMKTERPRPNTFIIRCLQWTTVIERTFHVETPEEREEWTTAIQTVADGL
modifications: PH domain fluorescent label
notes: Akt Pleckstrin Homology (PH) domain (positions 6 to 110), fluorescently labelled, expressed in Escherichia coli
B2: Hsv2: Hsv2 protein (PROPPIN domain), GFP-tagged fusion (protein, UniProt P50079 1-448, looked up)
SVP1-like protein 2: MDVRRPIREAVNNRRKPKFLSVSFNQDDSCFSVALENGFRIFNTDPLTSKLSKTFKESATNQSRGTGIGYTRMLYRTNYIALVGGGKRPRHALNKLIIWDDLLQKETITLKFMSSIKDVFLSRIHIVVVLENTIEIFQFQTNPQRICPILDIPPNGSVDYVVCSSKHLQSQASQSQSKILEIIAFPSNKCVGQIQVADLSQIKYNSQNPKESALLPTSIIKAHKNPIKLVRLNRQGTMVATCSVQGTLIRIFSTHNGTLIKEFRRGVDKADIYEMSFSPNGSKLAVLSNKQTLHIFQIFETTNTETNTPDHSRANGSSHPLKNYIPKGLWRPKYLDSVWSICNAHLKNPIFDAHRNDNSGDVTHDNEFYKDRCRIGWCQDSNNREQDDSLVLVWQNSGIWEKFVILEKEQQDSSKTHYSLNESLRNEDTKSAGEPTRWELVRESWREL
modifications: GFP tag
notes: Hsv2 protein (PROPPIN domain), GFP-tagged fusion

How the values were obtained:
[1] = Liposome array cooperative membrane recruitment (NBI); settings: GFP-tagged fusion, cooperative binding
Source text: FIG. 13: High-throughput image processing and calculation of normalized binding intensity. (a) Image processing pipeline. Multiple images are acquired, one exposure time for Atto647 and multiple exposure times for GFP to capture broad range of binding intensities, from strong (short exp. times) to weak (longer exp. times). All images are then processed with CellProfiler software. After removal of background, the Atto647 image is used for segmentation to obtain a mask representing position of liposome membranes. In parallel the combination of overexposed pixels from both channels (Atto647 and GFP) is removed from every pair of Atto647 and GFP image. Subsequently, a mask is applied to all filtered (i.e. without overexposed pixels) images. Number of pixels matching with the mask and their mean fluorescence intensity is extracted from all images (i.e. both channels and every exposure time). Normalized binding intensity (NBI) is then calculated as a ratio of mean fluorescence intensity from GFP channel and mean fluorescence intensity from Atto647 channel for every pair of images. (b) Image segmentation and liposome counting. […] CellProfiler software is used to segment the image to retrieve a mask representing liposome membranes, and also to search for centers of liposomes that are then used for estimating a number of liposomes analyzed per image. […]

[2] = Akt PH domain binding to liposome array, wide-field fluorescence microscopy; settings: E. coli lysate with fluorescently labelled domain, 30 minutes incubation, PBS wash
Source text: (§1) The Akt Pleckstrin Homology (PH) domain (positions 6 to 110) is known to specifically bind to PI-(3,4)-P2 and PI-(3,4,5)-P3 and is thus, used as a model system to evaluate the specificity and sensitivity of assays performed using the liposome array. The fluorescently labelled Akt PH domain is expressed in Escherichia coli, cells are lysed by sonication and after a centrifugation at 10000 g, supernantant is recovered and injected in the microchip. Several liposome arrays each comprising liposomes formed from different lipids are produced. Liposomes either comprised POPC only, or a […] mol:mol mixture of POPC:DOPS, POPC:PI3P, POPC:PI4P, POPC:PI(3,4)P2, POPC:PI(3,5)P2, POPC:PI(4,5)P2, POPC:PI(3,4,5)P3 (all of which are purchased from Avanti polar lipids) as shown in FIG. 11(a) to (h), respectively.
(§2) E. coli lysate comprising the fluorescently labelled Akt PH domain is applied to the liposome array and incubated 30 minutes and washed with PBS buffer before imaging.

[3] = as above; settings: E. coli lysate with fluorescently labelled domain, 30 minutes incubation, PBS wash; remark: listed apart in the source
Source text: as §1, §2

[4] = Liposome array lipid-binding profile, normalized binding intensity (NBI); settings: GFP-tagged fusion, cell lysate, 20 min incubation
Source text: (§3) FIG. 13: High-throughput image processing and calculation of normalized binding intensity. (a) Image processing pipeline. Multiple images are acquired, one exposure time for Atto647 and multiple exposure times for GFP to capture broad range of binding intensities, from strong (short exp. times) to weak (longer exp. times). All images are then processed with CellProfiler software. After removal of background, the Atto647 image is used for segmentation to obtain a mask representing position of liposome membranes. In parallel the combination of overexposed pixels from both channels (Atto647 and GFP) is removed from every pair of Atto647 and GFP image. Subsequently, a mask is applied to all filtered (i.e. without overexposed pixels) images. Number of pixels matching with the mask and their mean fluorescence intensity is extracted from all images (i.e. both channels and every exposure time). Normalized binding intensity (NBI) is then calculated as a ratio of mean fluorescence intensity from GFP channel and mean fluorescence intensity from Atto647 channel for every pair of images. […] CellProfiler software is used to segment the image to retrieve a mask representing liposome membranes, and also to search for centers of liposomes that are then used for estimating a number of liposomes analyzed per image. […] Fluorescence signal was analysed via a high-throughput image analysis pipeline (FIG. 13). […]

[5] = as above; settings: GFP-tagged fusion, cell lysate, 20 min incubation; remark: listed apart in the source
Source text: as §3

[6] = as above; settings: GFP-tagged fusion, cell lysate, 20 min incubation; remark: listed apart in the source
Source text: as §3

Row | Molecule | membrane recruitment [1] | binding to liposomes [2] | binding to liposomes [3] | interaction confirmed by NBI profile [4] | interaction confirmed by NBI profile [5] | interaction confirmed by NBI profile [6]
1 | Pkcγ: protein kinase C-γ, GFP-tagged fusion | calcium-dependent recruitment |  |  |  |  | 
2 | B1 |  | binds | binds | interactions | interactions | 
3 | B2 |  |  |  | interactions |  | interactions

Reference: US20150309057A1, “Giant Liposome Array for High-throughput Lipid-Interaction Screening” (EUROPEAN MOLECULAR BIOLOGY LABORATORY (EMBL), priority 2012, published 2015)
